Consider four molecules from patent US20240092889A1 (Chugai, published 2024).

By Kd is commonly meant the free concentration of one partner at which half of the binding sites on the other are occupied at equilibrium, for simple one-to-one binding.

The labels stand for the following.
B4: recombinant human C1r2s2 tetramer (other)
chain 1: EPTMYGEILSPNYPQAYPSEVEKSWDIEVPEGYGIHLYFTHLDIELSENCAYDSVQIISGDTEEGRLCGQRSSNNPHSPIVEEFQVPYNKLQVIFKSDFSNEERFTGFAAYYVATDINECTDFVDVPCSHFCNNFIGGYFCSCPPEYFLHDDMKNCGVNCSGDVFTALIGEIASPNYPKPYPENSRCEYQIRLEKGFQVVVTLRREDFDVEAADSAGNCLDSLVFVAGDRQFGPYCGHGFPGPLNIETKSNALDIIFQTDLTGQKKGWKLRYHGDPMPCPKEDTPNSVWEPAKAKYVFRDVVQITCLDGFEVVEGRVGATSFYSTCQSNGKWSNSKLKCQPVDCGIPESIENGKVEDPESTLFGSVIRYTCEEPYYYMENGGGGEYHCAGNGSWVNEVLGPELPKCVPVCGVPREPFEEKQRIIGGSDADIKNFPWQVFFDNPWAGGALINEYWVLTAAHVVEGNREPTMYVGSTSVQTSRLAKSKMLTPEHVFIHPGWKLLEVPEGRTNFDNDIALVRLKDPVKMGPTVSPICLPGTSSDYNLMDGDLGLISGWGRTEKRDRAVRLKAARLPVAPLRKCKEVKVEKPTADAEAYVFTPNMICAGGEKGMDSCKGDSGGAFAVQDPNDKTKFYAAGLVSWGPQCGTYGLYTRVKNYVDWIMKTMQENSTPRED
chain 2: SIPIPQKLFGEVTSPLFPKPYPNNFETTTVITVPTGYRVKLVFQQFDLEPSEGCFYDYVKISADKKSLGRFCGQLGSPLGNPPGKKEFMSQGNKMLLTFHTDFSNEENGTIMFYKGFLAYYQAVDLDECASRSKLGEEDPQPQCQHLCHNYVGGYFCSCRPGYELQEDRHSCQAECSSELYTEASGYISSLEYPRSYPPDLRCNYSIRVERGLTLHLKFLEPFDIDDHQQVHCPYDQLQIYANGKNIGEFCGKQRPPDLDTSSNAVDLLFFTDESGDSRGWKLRYTTEIIKCPQPKTLDEFTIIQNLQPQYQFRDYFIATCKQGYQLIEGNQVLHSFTAVCQDDGTWHRAMPRCKIKDCGQPRNLPNGDFRYTTTMGVNTYKARIQYYCHEPYYKMQTRAGSRESEQGVYTCTAQGIWKNEQKGEKIPRCLPVCGKPVNPVEQRQQIIGGQKAKMGNFPWQVFTNIHGRGGGALLGDRWILTAAHTLYPKEHEAQSNASLDVFLGHTNVEELMKLGNHPIRRVSVHPDYRQDESYNFEGDIALLELENSVTLGPNLLPICLPDNDTFYDLGLMGYVSGFGVMEEKIAHDLRFVRLPVANPQACENWLRGKNRMDVFSQNMFCAGHPSLKQDACQGDAGGVFAVRDPNTDRWVATGIVSWGIGCSRGYGFYTKVLNYVDWIKKEMEEED
notes: C1s and C1r co-expressed in HEK293/FreeStyle 293-F and purified from conditioned medium

Assay [1] has as its target B4. Put plainly: SPR (BIACORE T200), IPN009VH2Vk3-SG1148 immobilised on the chip, human C1r2s2 injected for capture, pH 7.4, 37 C. From the text:
(§1) Recombinant human C1r2s2 tetramer was first captured onto the sensor surface by the anti-C1r2s2 antibody. The capture levels were aimed at 200 resonance unit (RU). […] The sensor surface was regenerated each cycle with 3 M MgCl2. Sensorgrams were obtained using BIACORE® T200 Evaluation software, version 2.0 (GE Healthcare). […] For comparison of these sensorgrams, binging response of C1r2s2 was normalized as 100 RU. […] For comparison of these sensorgrams, baseline (before injecting antibodies) was adjusted to 0 RU.
In general terms: SPR reads the build-up and loss of mass on a sensor chip optically.

In assay [2] the target is B4. Put plainly: SPR (BIACORE T200), 37 C, ratio of KD at pH 5.8 to KD at pH 7.4. How it is done:
(§2) KD (dissociation constant) value of each samples at pH 7.4 and pH 5.8 are determined at 37 degrees C. using BIACORE® T200 instrument (GE Healthcare). Purified Mouse Anti-Human Ig kappa Light Chain (GE Healthcare) can be immobilized onto all flow cells of a CMS sensor chip using an amine coupling kit (GE Healthcare). 20 mM ACES, 150 mM NaCl, 1.2 mM CaCl2, 1 mg/mL BSA (IgG-free), 1 mg/mL CMD, 0.05% Tween® 20, 0.005% NaN3, pH 7.4 or pH 5.8 buffer were used as running buffer. Each antibody can be captured onto the sensor surface by Anti-Human Ig kappa Light chain. Antibody capture levels are aimed at 50 resonance unit (RU). […] Sensor surface is regenerated each cycle with, e.g., Glycine pH 2.0 (GE Healthcare). KD values were obtained using BIACORE® T200 Evaluation software, version 2.0 (GE Healthcare).

The target of assay [3] is B4. Put plainly: SPR (BIACORE T200), 37 C, Ab captured via anti-human Ig kappa, human C1r2s2 as analyte, pH 7.4; pH 7.4, 37 C. As to the method:
as §2

The target in assay [4] is B4. The experiment in a line: SPR (BIACORE T200), 37 C, Ab captured via anti-human Ig kappa, human C1r2s2 as analyte, pH 5.8; pH 5.8 (acidic buffer), 37 C; antibody engineered for pH-dependent binding. How it is done: as §2
In assay [5] the target is B4. The experiment in a line: SPR (BIACORE T200), 37 C, Ab captured via anti-human Ig kappa, human C1r2s2 as analyte, pH 7.4; pH 7.4, 37 C; kinetic KD, C1r2s2 up to 100-400 nM. As to the method: as §2
Assay [6] deals with T1, native human C1q (CompTech) (human, UniProt P02745 23-245; P02746 28-253; P02747 29-245).
T1 construct: the subunit make-up A/B/C is from general knowledge
T1 sequence (P02745 23-245 limits assumed, chain 1 of 3): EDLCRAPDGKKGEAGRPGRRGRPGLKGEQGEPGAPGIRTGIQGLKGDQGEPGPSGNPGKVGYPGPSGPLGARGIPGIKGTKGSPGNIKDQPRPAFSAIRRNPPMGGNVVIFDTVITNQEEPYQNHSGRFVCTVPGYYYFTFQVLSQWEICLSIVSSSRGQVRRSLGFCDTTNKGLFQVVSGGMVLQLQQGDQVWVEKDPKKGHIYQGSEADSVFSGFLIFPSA
T1 sequence (P02746 28-253 limits assumed, chain 2 of 3): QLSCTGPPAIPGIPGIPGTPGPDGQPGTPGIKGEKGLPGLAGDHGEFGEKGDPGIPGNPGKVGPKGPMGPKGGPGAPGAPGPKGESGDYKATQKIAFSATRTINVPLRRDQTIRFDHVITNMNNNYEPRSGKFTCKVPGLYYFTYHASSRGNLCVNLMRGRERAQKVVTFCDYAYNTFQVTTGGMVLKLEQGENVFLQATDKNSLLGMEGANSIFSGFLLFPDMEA
T1 sequence (P02747 29-245 limits assumed, chain 3 of 3): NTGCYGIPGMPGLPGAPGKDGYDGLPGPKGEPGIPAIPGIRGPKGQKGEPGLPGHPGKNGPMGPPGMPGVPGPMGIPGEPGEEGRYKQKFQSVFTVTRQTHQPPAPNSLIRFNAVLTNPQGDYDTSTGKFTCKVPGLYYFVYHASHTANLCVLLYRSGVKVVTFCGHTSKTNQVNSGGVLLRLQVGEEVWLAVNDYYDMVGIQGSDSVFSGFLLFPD
Put plainly: SPR (BIACORE T200), human C1r2s2 captured by immobilised IPN009VH2Vk3-SG1148, native human C1q injected at about 100 nM, pH 7.4, 37 C.
Text: as §1

B1: IPN009VH2VK3-SG1148 (antibody, human IgG1, kappa, V domains shown)
VH: EVMLVESGGGLVKPGGSLRLSCAASGFTFSNYAMSWVRQAPGKGLEWVATISSGGSHTYYLDSVKGRFTISRDNSKDTLYLQMNSLRAEDTALYYCARLFTGYAMDYWGQGTLVTVSS
VL: QIVLTQSPATLSLSPGERATLSCTASSSVSSSYLHWYQQKPGKAPKLWIYSTSNLASGVPSRFSGSGSGTDYTLTISSLQPEDFATYYCHQYYRLPPITFGQGTKLEIKR
notes: also called anti-human C1r2s2 antibody
As for B1, the binding result in assay [1] is “binds”.

B2: COS0637pHv3-TT91R (antibody, V domains shown)
VH: QVQLVESGGGVVQPGRSLRLSCAASGFTFSAYAMNWIRQPPGKGLEWIGLIYGSGHEFYASWAEERVTISVDTSKNQFSLKLSSVTAADTAVYYCARGRSKNYVSGFHLWGQGTLVTVSS
VL: DIQMTQSPSSLSASVGDRVTITCQASQILHDKKNLAWYQQKPGQPPKLLIYQASQLESGVPSRFSGSGSGTDFTLTISSLQPEDFATYYCHGEFSYESADLNQFGQGTKVEIKR
On to B2, for which the “KD (pH 5.8)/KD (pH 7.4)” value in assay [2] worked out at 278. Besides, the Kd is 7.66 nM in assay [3] and 2130 nM in assay [4].

B3: COS0637pHv5-TT91R (antibody, V domains shown)
VH: QVQLVESGGGVVQPGRSLRLSCAASGFSFSAYAMNWIRQPPGKGLEWIGLIYGSGHEFYASWAEERVTISVDTSKNQFSLKLSSVTAADTAVYYCARGRSKNYVSGFHLWGQGTLVTVSS
VL: DIQMTQSPSSLSASVGDRVTITCQASGILHDKKNLAWYQQKPGQPPKLLIYGASQLESGVPSRFSGSGSGTDFTLTISSLQPEDFATYYCHGEFSYEEADLNTFGQGTKVEIKR
For the molecule B3, the Kd in assay [5] came out at 6.43 nM.
For B4, the binding result in assay [6] is “binds”.
